{"source": "patent US20260109773A1", "about": "(HARPOON THERAPEUTICS, published 2026)", "binders": {"B1": {"name": "253BH10 trispecific protein (other, not shown: large carriers)", "chain": "QVQLVESGGGLVQPGESLRLSCAASTNIFSISPMGWYRQAPGKQRELVAAIHGFSTLYADSVKGRFTISRDNAKNTIYLQMNSLKPEDTAVYYCNKVPWGDYHPRNVYWGQGTQVTVSS", "notes": "also called molecule with the parental CDRs"}, "B2": {"name": "cynomolgus CD3ε-Fc (Fc fusion, UniProt Q95LI5 22-117, looked up)", "chain": "QDGNEEMGSITQTPYQVSISGTTVILTCSQHLGSEAQWQHNGKNKEDSGDRLFLPEFSEMEQSGYYVCYPRGSNPEDASHHLYLKARVCENCMEMD", "notes": "loaded on streptavidin tips; not shown: Fc part"}, "B3": {"name": "cynomolgus serum albumin (other, UniProt A2V9Z4 25-608, looked up)", "chain": "DTHKSEVAHRFKDLGEEHFKGLVLVAFSQYLQQCPFEEHVKLVNEVTEFAKTCVADESAENCDKSLHTLFGDKLCTVATLRETYGEMADCCAKQEPERNECFLQHKDDNPNLPPLVRPEVDVMCTAFHDNEATFLKKYLYEVARRHPYFYAPELLFFAARYKAAFAECCQAADKAACLLPKLDELRDEGKASSAKQRLKCASLQKFGDRAFKAWAVARLSQKFPKAEFAEVSKLVTDLTKVHTECCHGDLLECADDRADLAKYMCENQDSISSKLKECCDKPLLEKSHCLAEVENDEMPADLPSLAADYVESKDVCKNYAEAKDVFLGMFLYEYARRHPDYSVMLLLRLAKAYEATLEKCCAAADPHECYAKVFDEFQPLVEEPQNLVKQNCELFEQLGEYKFQNALLVRYTKKVPQVSTPTLVEVSRNLGKVGAKCCKLPEAKRMPCAEDYLSVVLNRLCVLHEKTPVSEKVTKCCTESLVNRRPCFSALELDEAYVPKAFNAETFTFHADMCTLSEKEKQVKKQTALVELVKHKPKATKEQLKGVMDNFAAFVEKCCKADDKEACFAEEGPKFVAASQAALA", "notes": "loaded on streptavidin tips"}, "B4": {"name": "human BCMA on BCMA-expressing cell lines (receptor)", "chain": "MLQMAGQCSQNEYFDSLLHACIPCQLRCSSNTPPLTCQRYCNASVTNSVKGTNAILWTCLGLSLIISLAVFVLMFLLRKINSEPLKDEFKNTGSGLLGMANIDLEKSRTGDEIILPRGLEYTVEECTCEDCIKSKPKVDSDHCFPLPAMEEGATILVTTKTNDYCKSLPAALSATEIEKSISAR", "notes": "BCMA as expressed by human tumour cell lines; also called BCMA expressing cells (EJM, Jeko1, MOLP-8, OPM-2, NCI-H929, RPMI-8226)"}, "B5": {"name": "human CD3ε-Fc (Fc fusion, UniProt P07766 23-126, looked up)", "chain": "DGNEEMGGITQTPYKVSISGTTVILTCPQYPGSEILWQHNDKNIGGDEDDKNIGSDEDHLSLKEFSELEQSGYYVCYPRGSKPEDANFYLYLRARVCENCMEMD", "notes": "as for B2"}}, "key": {"human BCMA protein": {"biological_target": "T1, human BCMA protein (human, UniProt Q02223 1-54, limits assumed)", "T1 sequence": "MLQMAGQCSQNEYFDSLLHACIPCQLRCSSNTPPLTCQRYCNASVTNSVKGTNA", "test": "affinity to human BCMA protein; method not stated"}, "[1]": {"biological_target": "B4", "test": "cell-based or functional assay"}, "02B05 TriTAC [2]": {"biological_target": "T2, 02B05 TriTAC", "T2 construct": "TriTAC trispecific; His6 in entry; also called exemplary BCMA targeting trispecific protein (02B05)", "T2 sequence (chain, as listed by the source)": "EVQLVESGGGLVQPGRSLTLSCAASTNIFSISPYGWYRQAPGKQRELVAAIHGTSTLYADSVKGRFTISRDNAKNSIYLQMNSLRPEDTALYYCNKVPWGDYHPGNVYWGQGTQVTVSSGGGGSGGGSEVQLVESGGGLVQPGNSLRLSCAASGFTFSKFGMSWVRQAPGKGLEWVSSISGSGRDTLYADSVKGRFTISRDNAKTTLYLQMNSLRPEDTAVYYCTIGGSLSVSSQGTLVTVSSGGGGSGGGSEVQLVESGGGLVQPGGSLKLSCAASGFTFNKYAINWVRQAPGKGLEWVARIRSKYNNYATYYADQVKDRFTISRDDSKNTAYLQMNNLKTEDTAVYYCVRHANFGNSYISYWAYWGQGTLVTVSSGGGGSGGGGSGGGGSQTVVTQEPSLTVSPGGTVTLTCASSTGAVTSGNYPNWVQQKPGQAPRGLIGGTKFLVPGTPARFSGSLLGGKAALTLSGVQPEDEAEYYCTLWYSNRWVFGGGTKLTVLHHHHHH", "test": "Octet; 2.5 nM cynomolgus CD3ε-Fc on streptavidin tips; 15 mg/ml HSA; n=2", "description": "(§1) The affinities were measured using an Octet instrument. For these measurements, streptavidin tips were first loaded with 2.5 nM human BCMA-Fc, 2.5 nM cynomolgous BCMA-Fc, 2.5 nM human CD3ε-Fc, 2.5 nM cynomolgus CD3ε-Fc, 50 nM human serum albumin (HSA), 50 nM cynomolgus serum albumin, or 50 nM mouse serum albumin. […] Average calculated KD values from these studies are provided in Table 4 (n indicates the number of independent measurements, n/d indicates no binding detected under the conditions tested)."}, "02B05 TriTAC [3]": {"biological_target": "T2, 02B05 TriTAC", "test": "Octet; 50 nM cynomolgus serum albumin on streptavidin tips; n=1", "description": "as §1"}, "02B05 TriTAC [4]": {"biological_target": "T2, 02B05 TriTAC", "test": "flow cytometry on NCI-H929 cells (BCMA RNA FPKM 1931); bound protein detected with an Alexa Fluor 647 antibody against the anti-albumin domain; negative control: GFP trispecific protein"}, "02B05 TriTAC [5]": {"biological_target": "T2, 02B05 TriTAC", "test": "Octet; 2.5 nM human CD3ε-Fc on streptavidin tips; 15 mg/ml HSA; n=2", "description": "as §1"}}}
{"binder": "B1", "values": [{"measurement": "Kd", "setting": "human BCMA protein", "value": 27.7, "unit": "nM"}, {"measurement": "TDCC EC50, EJM cells", "setting": "[1]", "value": 0.0529, "unit": "nM"}]}
{"binder": "B2", "values": [{"measurement": "Kd", "setting": "02B05 TriTAC [2]", "value": 7.8, "unit": "nM"}]}
{"binder": "B3", "values": [{"measurement": "Kd", "setting": "02B05 TriTAC [3]", "value": 7.5, "unit": "nM"}]}
{"binder": "B4", "values": [{"measurement": "binding result", "setting": "02B05 TriTAC [4]", "value": "binds"}]}
{"binder": "B5", "values": [{"measurement": "Kd", "setting": "02B05 TriTAC [5]", "value": 8, "unit": "nM"}]}
